Laboratory results as given in PMC3897220, “A comparative study of Whi5 and retinoblastoma proteins: from sequence and structure analysis to intracellular networks” (Frontiers in Physiology, 2013).
Each block holds one molecule with its values, some of them ahead of it.

Legend:
[1] = molecular target: Whi5 (Whi5Sc) motif 3, 245-267 (UniProt Q12416); test: SPR, biotinylated motif 3 on streptavidin chip; settings: reference: unphosphorylated motif 1 peptide; sites T143,S154,S156,S161
[2] = molecular target: T1, Whi5^Sc motif 3 peptide (residues 245-267), biotinylated (S. cerevisiae, UniProt Q12416 245-267, biotin (position not given)); test: SPR; BIAcore X; biotinylated motif 3 immobilised on streptavidin Sensor Chip SA (~1000 resonance units), reference cell saturated with biotin; analytes motif 1 and phospho-motif 1 at 20 to 340 uM; HBS-EP buffer, flow 5 ul/min; settings: both partners purified
T1 construct: Whi5 of Saccharomyces cerevisiae, motif 3, residues 245-267 (Whi5^Sc numbering); Held on a streptavidin chip by its biotin; source: synthetic peptide (Primm, Milano, Italy)
T1 peptide (looked up): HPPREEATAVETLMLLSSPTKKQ

binding against the reference [1]: weaker
Molecule: Whi5 (Whi5Sc) motif 1, 136-162 (from UniProt Q12416) phospho-motif 1 peptide (pT143, pS154, pS156, pS161)

binding result [2]: binds
B1: Whi5^Sc motif 1 peptide (residues 136-162) (peptide, UniProt Q12416 136-162, looked up)
peptide: MPLLPPTTPKSRRSEVFLSPSPRLRSP
notes: Whi5 of Saccharomyces cerevisiae, motif 1, residues 136-162 (Whi5^Sc numbering); source: synthetic peptide (Primm, Milano, Italy)
